Where “and” joins values, the source holds several entries; their conditions need not be identical. Identical values can stand only once. Like-named read-outs stand apart in the source and are kept apart here.
T1: human CXCR2 (human, UniProt P25025 1-360)
T1 sequence: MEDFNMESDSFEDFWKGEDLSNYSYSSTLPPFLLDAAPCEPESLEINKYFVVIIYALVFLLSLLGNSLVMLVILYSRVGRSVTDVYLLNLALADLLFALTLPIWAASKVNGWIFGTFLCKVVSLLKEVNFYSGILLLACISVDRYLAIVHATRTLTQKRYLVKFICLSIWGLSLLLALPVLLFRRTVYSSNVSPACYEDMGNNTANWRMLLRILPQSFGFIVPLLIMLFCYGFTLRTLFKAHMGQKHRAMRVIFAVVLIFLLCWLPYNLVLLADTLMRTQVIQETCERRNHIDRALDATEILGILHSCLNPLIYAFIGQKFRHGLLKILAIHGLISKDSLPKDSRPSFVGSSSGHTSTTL

T2: human CXCR1 (human, UniProt P25024 1-350)
T2 sequence: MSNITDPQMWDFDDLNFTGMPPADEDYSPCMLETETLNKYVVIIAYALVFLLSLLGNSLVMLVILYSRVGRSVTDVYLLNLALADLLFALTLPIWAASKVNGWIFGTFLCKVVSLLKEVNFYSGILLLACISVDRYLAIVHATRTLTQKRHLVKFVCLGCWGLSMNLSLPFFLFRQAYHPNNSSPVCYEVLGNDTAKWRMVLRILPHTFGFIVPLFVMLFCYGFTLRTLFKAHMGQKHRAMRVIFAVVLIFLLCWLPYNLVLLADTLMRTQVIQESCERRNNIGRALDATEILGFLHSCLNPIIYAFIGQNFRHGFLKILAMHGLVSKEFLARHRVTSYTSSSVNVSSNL

T3: cynomolgus monkey CXCR2 (cynomolgus monkey, UniProt Q28519 3-353 (rhesus entry))
T3 construct: native on cynomolgus blood cells in the entries below; also called cynomolgus CXCR2
T3 chain: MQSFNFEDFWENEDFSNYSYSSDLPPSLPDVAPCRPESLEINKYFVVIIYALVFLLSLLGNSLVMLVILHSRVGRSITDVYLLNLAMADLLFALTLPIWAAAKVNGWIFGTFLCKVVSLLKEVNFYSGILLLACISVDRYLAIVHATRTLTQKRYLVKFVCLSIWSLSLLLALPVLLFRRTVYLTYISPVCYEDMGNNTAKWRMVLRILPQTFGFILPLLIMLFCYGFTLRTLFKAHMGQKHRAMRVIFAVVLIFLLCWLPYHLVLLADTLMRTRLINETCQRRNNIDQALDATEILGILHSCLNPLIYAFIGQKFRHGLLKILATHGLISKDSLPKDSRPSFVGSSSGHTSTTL


Tests used:
human CXCR2 [1] = biological target: T1, human CXCR2; assay: cell-based or functional assay
human CXCR2 [2] = biological target: T1, human CXCR2; assay: cell-based or functional assay; remark: listed apart in the source
human CXCR1 = biological target: T2, human CXCR1; assay: flow cytometry, transfected Expi293F cells
Protocol: (§1) Harvested cells were resuspended in FACS buffer (1×PBS+0.5% (w/v) bovine serum albumin (BSA)+2 mM EDTA pH 7.2). Approximately 2×10⁵ cells were added per well in a 96-well round-bottomed plate. Cells were pelleted by centrifugation at 400 g for 5 mins at 4° C. and supernatants discarded. 25 μL of each test antibody or control antibody was added to the cells and incubated for 30 minutes at 4° C. Cells were washed twice in 100 μL FACS buffer followed by centrifugation at 400 g for 5 mins at 4° C.
(§2) For detection, 50 μL of secondary antibody (Table 2) was added to relevant samples. Commercially available antibodies that bound to transfected CXCR family members were used as positive controls to ensure that the cells were expressing the receptors. Cells were washed twice in 200 μL of FACS buffer followed by centrifugation at 400 g for 5 mins at 4° C. Before sample acquisition, cells were resuspended in 100 μL of FACS buffer. Samples were acquired using the high throughput sampler on a FACSCanto™ II cytometer (Beckton-Dickinson).
(§3) These antibody variable regions were then generated by gene synthesis and subcloned into mammalian expression vectors as described in General Methods. Antibodies were produced by co-expression of heavy and light chain plasmids in Expi293F™ cells and purified by protein A column chromatography as described in General Methods. Where several heavy and/or light chains were identified from the same hybridoma cells, each heavy chain was paired with each light chain and the resulting antibodies given suffix a, b, c, etc. Purified antibodies were desalted into Sorensen's PBS pH 5.8 and tested by flow cytometry for binding to Expi293F™ cells transfected with human CXCR2 or human CXCR1 and mock transfected Expi293F™ cells.

human CXCR2 [3] = biological target: T1, human CXCR2; assay: flow cytometry, CXCR2-transfected Expi293F cells
Protocol: as §1, §2
Each heavy chain was co-expressed with each light chain to produce a sequence optimized antibody variant. Antibodies were purified and tested for CXCR2 binding activity as described in General Methods.

human CXCR2 [4] = biological target: T1, human CXCR2; assay: flow cytometry, CXCR2-transfected Expi293F cells; remark: listed apart in the source
Protocol: as §1, §2
A further six heavy chain combinational variants comprising four or more amino acid substitutions were produced as provided in Table 12. […] Each heavy chain was co-expressed with light chain c (SEQ ID NO:110) to produce an antibody variant. Antibodies were purified and tested for CXCR2 binding activity as described in General Methods.

cynomolgus monkey CXCR2 = biological target: T3, cynomolgus monkey CXCR2; assay: flow cytometry, native CXCR2 on cynomolgus PBMC preparations
Protocol: Whole human buffy coat, PBMC enriched fractions prepared from human peripheral blood buffy coat or cynomolgus monkey whole blood was used for analysis of antibody binding activity by flow cytometry. Briefly, blood was untreated or diluted 1:1 in sterile filtered room temperature phosphate-buffered saline (PBS). 30 mL samples were layered over 15 mL Lymphoprep™ (Stem Cell Technologies, cat #07851). Peripheral blood mononuclear cells (PBMC) were enriched by room temperature centrifugation at 700 g for 30 minutes with no braking. The PBMC layer was isolated and cells washed in PBS containing 2 mM EDTA with low speed centrifugation at 200 g, to remove platelet contamination. Whole blood or PBMC enriched cell fractions were resuspended in red blood cell lysing solution (BioLegend, 420301). Viable cell counts were determined and cells resuspended at 1×10⁷ cells per mL in FACS buffer (1×PBS+0.5% (w/v) BSA+2 mM EDTA pH 7.2).
Flow cytometry binding assays using whole blood or PBMC enriched preparations: Binding assays to detect CXCR2 on blood neutrophil populations using test antibodies were performed essentially as described for assays using transiently transfected Expi293F™ cells. […] Matched isotype control antibodies were included for comparison. […] Neutrophil populations were identified by characteristic granularity and size, and positive binding of commercially available antibodies against CD10 (Biolegend, clone Hl10a, catalogue number 312204). Cells were washed and fixed (BioLegend Fixation buffer, 420801) prior to analysis. The level of fluorescence on the cell surface was measured by flow cytometry.

human CXCR2 [5] = biological target: T1, human CXCR2; assay: flow cytometry, transfected Expi293F cells
Protocol: as §1, §2, §3

Binder | IC50, CXCL1, Tango assay (human CXCR2 [1]) [nM] | IC50, CXCL8, Tango assay (human CXCR2 [1]) [nM] | CXCL1 IC50, Tango assay (human CXCR2 [2]) [nM] | CXCL8 IC50, Tango assay (human CXCR2 [2]) [nM] | binding result (human CXCR1) | EC50 (human CXCR2 [3]) | EC50 (human CXCR2 [4]) | binding result (cynomolgus monkey CXCR2) | CXCL1 Fold Improvement over 4A8 WT (human CXCR2 [2]) [fold] | CXCL8 Fold Improvement over 4A8 WT (human CXCR2 [2]) [fold] | Max binding (MFI Percent of 4A8 WT) (human CXCR2 [4]) [%] | Max binding (MFI) (human CXCR2 [4]) | binding result (human CXCR2 [5])
BKO-4A8 (antibody, human IgG4 S228P, lambda, recombinant human IgG4 S228P, lambda; also called BKO-4A8 IgG4; parental BKO-4A8) heavy: not shown light: QSALTQPPSASGSPGQSVTISCIGTSSDVGGYNYVSWYQQHPDKAPKLMIYEVNKRPSGVPDRFSGSKSGNTASLTVSGLQAEDEADYYCSSYAGNNNFGVFGGGTKLTVLGQPKAAPSVTLFPPSSEELQANKATLVCLISDFYPGAVTVAWKADSSPVKAGVETTTPSKQSNNKYAASSYLSLTPEQWKSHRSYSCQVTHEGSTVEKTVAPTECS | 0.177 | 0.112 | 94 | 0.66 | no binding | 0.4 nM and 0.5 nM and 0.6 nM and 0.9 nM | 1.58 nM and 3.82 nM | binds | – | – | – | – | –
BKO-4A8-103c (antibody, human IgG4 S228P, lambda, V domains shown, IgG4 S228P, lambda) VH: EVQLLESGGGLVQPGGSLRLSCAASGFTFSSSTQSWVRQPPGKGLEWVSAISGSGGSTYYADSVKGRFTISRDNSKNTLYLQMNSLRAEDTAVYYCAIQMGYWGQGILVTVSS VL: QSALTQPPSASGSPGQSVTISCIGTSSDVGGYNYVSWYQQHPGKAPKLMIYEVSKRPSGVPDRFSGSKSGNTASLTVSGLQAEDEADYYCSSYAGSNNFGVFGGGTKLTVLG | – | – | 2.4 | 1.25 | – | – | 5.15 nM | – | 2.55 | 0.53 | 72 | 44400 | –
BKO-4A8 combinatorial variant 106c (antibody, human IgG4 S228P, lambda, V domains shown, IgG4 S228P, lambda) VH: EVQLLESGGGLVQPGGSLRLSCAASGFTFSSSTQSWVRQPPGKGLEWVSAISGSGGSTYYADSVKGRFTISRDNSKNTLYLQMNSLRAEDTAVYYCAIQEGYWGQGILVTVSS VL: QSALTQPPSASGSPGQSVTISCIGTSSDVGGYNYVSWYQQHPGKAPKLMIYEVSKRPSGVPDRFSGSKSGNTASLTVSGLQAEDEADYYCSSYAGSNNFGVFGGGTKLTVLG | – | – | – | – | – | – | > 100 nM | – | – | – | – | 11600 | –
BKO-4A8-104c (antibody, human IgG4 S228P, lambda, V domains shown, IgG4 S228P, lambda) VH: EVQLLESGGGLVQPGGSLRLSCAASGFTFSSSTQSWVRQPPGKGLEWVSAISGSGGSTYYADSVKGRFTISRDNSKNTLYLQMNSLRAEDTAVYYCAIQKGYWGQGILVTVSS VL: QSALTQPPSASGSPGQSVTISCIGTSSDVGGYNYVSWYQQHPGKAPKLMIYEVSKRPSGVPDRFSGSKSGNTASLTVSGLQAEDEADYYCSSYAGSNNFGVFGGGTKLTVLG | – | – | 2.17 | 0.75 | – | – | 6.45 nM | – | 0.43 | 0.88 | 54 | 45100 | –
BKO-8G3_b (antibody, human IgG4 S228P, lambda, V domains shown, recombinant human IgG4 S228P, lambda) VH: EVQLLESGGGLVQPGGSLRLSCAASGFTFSSYAMSWVRQAPGKGLEWVSAITGSGGSTYYADSVKGRFTISRDKSKNTLYLQMNSLRAEDTAVYYCAIRLGYWGQGSLVTVSS VL: QSALTQPPSASGSPGQSVTISCTGTSSDVGGYNYVSWYQQHPGKVPKLVIYEVSKRPSGVPDRFSGSKSGNTASLTVSGLQAEDEADYYCSSYAGSNNFGVFGGGTKLTVLG | – | – | – | – | no binding | – | – | binds | – | – | – | – | binds

Other lines, results leading:

IC50, CXCL1, Tango assay (human CXCR2 [1]) [nM] | IC50, CXCL8, Tango assay (human CXCR2 [1]) [nM] | CXCL1 IC50, Tango assay (human CXCR2 [2]) [nM] | CXCL8 IC50, Tango assay (human CXCR2 [2]) [nM] | binding result (human CXCR1) | EC50 (human CXCR2 [3]) | EC50 (human CXCR2 [4]) | binding result (cynomolgus monkey CXCR2) | CXCL1 Fold Improvement over 4A8 WT (human CXCR2 [2]) [fold] | CXCL8 Fold Improvement over 4A8 WT (human CXCR2 [2]) [fold] | Max binding (MFI Percent of 4A8 WT) (human CXCR2 [4]) [%] | Max binding (MFI) (human CXCR2 [4]) | binding result (human CXCR2 [5]) | Binder
– | – | 4 | 1.85 | – | – | 5.73 nM | – | 0.24 | 0.36 | 52 | 42700 | – | BKO-4A8-105c (antibody, human IgG4 S228P, lambda, V domains shown, IgG4 S228P, lambda) VH: EVQLLESGGGLVQPGGSLRLSCAASGFTFSSSTQSWVRQPPGKGLEWVSAISGSGGSTYYADSVKGRFTISRDNSKNTLYLQMNSLRAEDTAVYYCAIQAGYWGQGILVTVSS VL: QSALTQPPSASGSPGQSVTISCIGTSSDVGGYNYVSWYQQHPGKAPKLMIYEVSKRPSGVPDRFSGSKSGNTASLTVSGLQAEDEADYYCSSYAGSNNFGVFGGGTKLTVLG
– | – | – | – | no binding | – | – | binds | – | – | – | – | binds | BKO-9C3_a (antibody, human IgG4 S228P, lambda, V domains shown, recombinant human IgG4 S228P, lambda) VH: EVQVLESGGGLVQPGGSLRLSCAASGFTFRSYAMSWVRQAPGKGLEWVSAISGSGGSTYYADSVKGRFTISRDKSKNTLYLQMNSLRAEDTAVYYCAIQLGYWGQGTLVTVSS VL: QSALTQPPSASGSPGQSVIISCTGTSSDVGGYNYVSWYQQHPGKVPKLMIYEVSKRPSGVPDRFSGSKSGNTASLTVSGLQAEDEADYYCTSYAGSNNFGVFGGGTKLTVLG

Reference: patent US20240301076A1 (CEPHALON, published 2024)
